From PMC3169402, “Structure of fructose bisphosphate aldolase from Encephalitozoon cuniculi” (Acta Crystallographica Section F: Structural Biology and …, 2011)

Target: the molecule itself
Assay: crystal structure; sitting-drop vapour diffusion at 290 K, Bis-Tris propane pH 6.5, PEG 3350; phosphate-bound (2.00 Å) and FBP-bound (2.37 Å) forms, space group C222(1), data at 100 K

B1: Fructose bisphosphate aldolase from Encephalitozoon cuniculi (enzyme, UniProt Q8SSM8 1-338, looked up)
chain: MMDCDHLLRLGMTAKKILENGKGILAADETPKTLGRRFEKLGITNTEENRRKFREILFSTKGIERYIGGVILNQETFEQTSGSGVPLTELLKKKGIEIGIKLDKGLIDYKEKEKISVGLEDLDLRCKSSAFKDATFAKWRSLFYFYDGIPSEDCINENCSILAKYAIICQKNGLVPIVEPEVFLEGDYSMKRSYEVTRQILSTLMKYLNYELVYIPGVLIKASYVTSGQLSNEKYTPKKVATFTLRALLSTIPCGIPGIVFLSGGHGSEDAIGFLNAINMERGCRTWSLSFSFARALTDGVLETWRGDDSNIEEAQKILLETSFKACRGAEGKLWDQE
notes: Fructose bisphosphate aldolase (class I), Encephalitozoon cuniculi, UniProt Q8SSM8, full-length protein, residues 1 to 338; In PDB 3mbf Lys221 forms a Schiff base with fructose 1,6-bisphosphate; also called EcFBPA; FBPA; source: E. coli BL21(DE3)R3 Rosetta, purified (HisTrap IMAC, Superdex 75 SEC)
- stoichiometry N: 2
